{
  "source": "patent EP3922644A2",
  "about": "(The Texas A&M University System, dated 2021)",
  "molecules": {"B1": {"name": "FBE5-F11 (Fc fusion)", "VH": "QVQLQESGGGVVQPGRSLRLSCAASGFTFSSYGMHWVRQAPGKGLEWVAVISYDGSNKYYADSVKGRFTISRDNSKNTLYLQMNSLRAEDTAVYYCAKDLASSGFDYWGQGTLVTVSS", "VL": "QSVLTQPPSVSAAPGQKVTISCSGSSSNIGNNYVSWYQQLPGTAPKLLIYDNNKRPSGIPDRFSGSKSGTSATLGITGLQTGDEADYYCGTWDSSLSAEVFGGGTKLTVL", "notes": "Tested as scFv-Fc (human scFv from HAL9/HAL10 recloned into pCSE2.6-hIgG1-Fc-XP, made in HEK293-6E)"}},
  "key": {"[1]": {"biological_target": "Fibrinogen-D fragment (human, plasmin digest) (human) (UniProt P02671)", "assay": "ITC (VP-ITC), peptide titrated into 10 µM Fg-D, one-site model, 27°C"}, "human fibrinogen (human) [2]": {"biological_target": "human fibrinogen (human) (UniProt P02671)", "assay": "apparent KD, solid phase binding assay, DC2-Fg coated 1 µg/well, Fg titrated 0-0.3 µM"}, "human fibrinogen (human) [3]": {"biological_target": "human fibrinogen (human) (UniProt P02671)", "assay": "ELISA, GST-tagged Coa fragment on immobilized Fg"}, "human fibrinogen (human) [4]": {"biological_target": "human fibrinogen (human) (UniProt P02671)", "assay": "apparent affinity, ELISA, GST-tagged Coa fragment on immobilized Fg"}, "human fibrinogen (human) [5]": {"biological_target": "human fibrinogen (human) (UniProt P02671)", "assay": "apparent KD, solid phase binding assay, Efb coated 1 µg/well, Fg titrated 0-0.3 µM"}, "[6]": {"biological_target": "T1, Efb-N30-105, His-tagged recombinant protein (Staphylococcus aureus strain Newman, UniProt A6QG59 30-105)", "T1 construct": "range 30-105; not shown: polyhistidine tag (detected with anti-HIS-tag antibody)", "T1 sequence (looked up)": "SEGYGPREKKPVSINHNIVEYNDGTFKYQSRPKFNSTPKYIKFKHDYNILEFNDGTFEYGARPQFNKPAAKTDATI", "assay": "apparent Kd from half maximum binding in ELISA"}, "[7]": {"biological_target": "Efb-A30-67, GST-tagged recombinant protein (Staphylococcus aureus strain Newman, UniProt P08515 1-218 = GST; A6QG59 30-67)", "assay": "apparent Kd from half maximum binding in ELISA"}, "[8]": {"biological_target": "T2, rEfb-O (Efb 68-98), GST-tagged recombinant protein (Staphylococcus aureus strain Newman)", "T2 construct": "also called Efb-O68-98; not shown: N-terminal GST tag from pGEX-5x-1", "T2 chain": "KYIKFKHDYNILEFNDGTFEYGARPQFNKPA", "assay": "apparent Kd from half maximum binding in ELISA"}, "[9]": {"biological_target": "T3, Fibrinogen-D fragment (human, plasmin digest) (human, UniProt P02671 124-225; P02675 164-491; P02679 89-437)", "T3 construct": "domain: D fragment; Made by digesting human Fg with plasmin for 4 h and gel filtration; also called Fg-D; Fg-D fragment", "T3 sequence 1": "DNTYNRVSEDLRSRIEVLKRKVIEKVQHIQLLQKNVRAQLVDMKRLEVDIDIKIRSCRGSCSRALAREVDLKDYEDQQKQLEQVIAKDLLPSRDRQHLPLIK", "T3 sequence 2": "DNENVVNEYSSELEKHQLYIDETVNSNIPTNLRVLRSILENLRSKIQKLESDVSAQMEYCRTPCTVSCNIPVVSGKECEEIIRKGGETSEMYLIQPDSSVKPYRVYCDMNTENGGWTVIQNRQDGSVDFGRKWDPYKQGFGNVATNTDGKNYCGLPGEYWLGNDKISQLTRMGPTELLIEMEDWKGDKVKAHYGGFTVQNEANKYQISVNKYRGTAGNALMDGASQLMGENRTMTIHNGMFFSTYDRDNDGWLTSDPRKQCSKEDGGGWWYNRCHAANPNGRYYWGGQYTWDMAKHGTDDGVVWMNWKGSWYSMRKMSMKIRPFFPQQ", "T3 sequence 3": "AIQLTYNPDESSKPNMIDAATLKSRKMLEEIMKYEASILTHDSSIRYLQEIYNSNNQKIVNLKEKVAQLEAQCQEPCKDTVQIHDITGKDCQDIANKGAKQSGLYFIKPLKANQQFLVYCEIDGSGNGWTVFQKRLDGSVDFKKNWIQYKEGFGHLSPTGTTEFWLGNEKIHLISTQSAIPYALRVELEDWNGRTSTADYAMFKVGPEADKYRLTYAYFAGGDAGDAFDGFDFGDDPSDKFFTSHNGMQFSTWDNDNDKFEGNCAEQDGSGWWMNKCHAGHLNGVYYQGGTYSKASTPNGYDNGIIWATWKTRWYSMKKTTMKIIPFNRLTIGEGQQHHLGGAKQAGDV", "assay": "ITC (VP-ITC), peptide titrated into 10 µM Fg-D, one-site model, 27°C"}},
  "data": [
    {"molecule": "sCoa-RI3, synthetic peptide Coa 502-528", "values": [
      {"measurement": "Kd", "setting": "[1]", "result": 124, "unit": "nM"}
    ]},
    {"molecule": "DC2-Fg, DC2 with the fibrinogen binding motif Efb-O inserted after Gln 301 (designed binder)", "values": [
      {"measurement": "Kd", "setting": "human fibrinogen (human) [2]", "result": 10, "unit": "nM"}
    ]},
    {"molecule": "Coa-C (Coa 311-636), GST-tagged (from UniProt P08515 1-218)", "values": [
      {"measurement": "EC50", "setting": "human fibrinogen (human) [3]", "result": 7.5, "unit": "nM"}
    ]},
    {"molecule": "Coa-R (Coa 506-636), GST-tagged (from UniProt P08515 1-218)", "values": [
      {"measurement": "Kd", "setting": "human fibrinogen (human) [4]", "result": 0.8, "unit": "nM"}
    ]},
    {"molecule": "Efb as coated in the solid phase binding assay of the DC proteins (from UniProt A6QG59 30-165)", "values": [
      {"measurement": "Kd", "setting": "human fibrinogen (human) [5]", "result": 1, "unit": "nM"}
    ]},
    {"molecule": "sCoa-RV1, synthetic peptide Coa 610-636", "values": [
      {"measurement": "Kd", "setting": "[1]", "result": 139, "unit": "nM"}
    ]},
    {"molecule": "B1", "values": [
      {"measurement": "Kd", "setting": "[6]", "result": "~0.1", "unit": "nM"},
      {"measurement": "Kd", "setting": "[7]", "result": "~0.1", "unit": "nM"},
      {"measurement": "Kd", "setting": "[8]", "result": "~0.1", "unit": "nM"}
    ]},
    {"molecule": "ETNAYNVTTHANGQVSYGARPTYKKPS (also called peptide CoaRI)", "note": "[sCoa-RI, synthetic peptide Coa 506-532]", "values": [
      {"measurement": "Kd", "setting": "[9]", "result": 88, "unit": "nM"}
    ]}
  ]
}
